Measurements reported in patent publication US9206457B2, “Utilization of pharmacological chaperones to improve manufacturing and purification of biologics” (Amicus Therapeutics, Inc., priority 2009, dated 2015).
Changes are numbered by the printed parent chain.

What was measured:
[1] = target: T1, recombinant human GCase (Cerezyme®) (Homo sapiens, UniProt P04062, R534H); experiment: GCase activity in human plasma at 37° C. (4-MUG); assay type: in vitro ADME; conditions: human plasma, 0.5 μM GCase, no chaperone
T1 construct: purchased Genzyme Corp
T1 sequence (P04062 40-536 R534H): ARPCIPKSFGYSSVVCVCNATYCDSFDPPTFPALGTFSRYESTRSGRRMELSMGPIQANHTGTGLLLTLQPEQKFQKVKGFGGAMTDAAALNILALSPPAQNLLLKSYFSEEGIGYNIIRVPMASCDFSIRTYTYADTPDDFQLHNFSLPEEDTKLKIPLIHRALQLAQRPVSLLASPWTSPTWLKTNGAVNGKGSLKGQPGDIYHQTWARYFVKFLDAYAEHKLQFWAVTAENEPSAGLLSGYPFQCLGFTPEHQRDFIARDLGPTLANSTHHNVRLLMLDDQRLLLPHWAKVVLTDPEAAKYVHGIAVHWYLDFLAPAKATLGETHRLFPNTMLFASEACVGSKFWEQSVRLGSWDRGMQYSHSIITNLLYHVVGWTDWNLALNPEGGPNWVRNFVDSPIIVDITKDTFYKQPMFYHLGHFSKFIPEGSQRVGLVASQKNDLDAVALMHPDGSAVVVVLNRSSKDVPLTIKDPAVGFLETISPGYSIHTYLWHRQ
Protocol: FIG. 10 depicts the effects of IFG on recombinant human GCase (GCase; Cerezyme®, Genzyme Corp.) activity in human plasma at 37° C. GCase activity was evaluated to assess the ability of an ASSC to prolong the activity of GCase in human plasma over time. Cerezyme (0.5 μM) was incubated in human plasma with increasing concentrations of IFG (3 μM, 30 μM, or 100 μM) at 37° C. over 4 hours. Samples were assayed for GCase enzyme activity using 4-MU-β-glucose at 0.25, 0.5, 1, 2 and 4 hours and the residual GCase activity was expressed as % of initial activity.
The activity of GCase (0.5 μM; Cerazyme®) at 37° C. in human plasma was assessed for increasing concentrations of IFG (3 μM, 30 μM, and 100 μM) as a function time using the substrate 4-MUG.

[2] = target: T2, acid β-glucosidase (GCase; Cerezyme®) (Homo sapiens, UniProt P04062, R534H); experiment: SYPRO Orange thermal stability assay (heat denaturation) of GCase; assay type: binding; conditions: pH 5.2 versus pH 7.4, no chaperone
T2 construct: purchased Genzyme Corp
T2 sequence (P04062 40-536 R534H): T1 sequence (P04062 40-536 R534H)
Protocol: FIG. 4 depicts the results of a thermal stability assay that utilizes heat to induce protein denaturation, which is monitored using a SYPRO Orange dye that fluoresces upon binding to hydrophobic amino acids (which are not exposed in a folded protein). Isofagomine increases acid β-glucosidase thermostability as evident by increases in melting temperature in a dose-dependent manner. The experiment was conducted at pH 7.4.
FIG. 8 depicts the stability of recombinant human GCase (Cerazyme®, Genzyme Corp.) at neutral pH (7.4) or acidic pH (5.2) in the presence or absence of 10 μM of IFG as determined in a thermal stability assay. The thermal stability assay utilizes heat to induce protein denaturation, which is monitored using a SYPRO Orange dye that fluoresces upon binding to hydrophobic amino acids (which are not exposed in a folded protein).
A thermal stability experiment as generally described in Example 1 was performed on three compositions of GCase (Cerezyme®):
A thermal stability experiment as generally described in Examples 1 and 4 was performed on three compositions of GCase (Cerezyme®):
Protein denaturation was monitored using SYPRO Orange dye which fluoresces when bound to exposed hydrophobic amino acids.

B1: GCase: recombinant human GCase (Cerezyme®, Genzyme Corp.) (protein, UniProt P04062 40-536, looked up)
Lysosomal acid …: T1 sequence (P04062 40-536 R534H) with H495R
modifications: imiglucerase
Time by which GCase is completely inactive [1]: ≤ 1 h | Time by which most GCase is inactivated [1]: ≤ 30 min | Stability of GCase at acidic versus neutral pH (thermal stability assay) [2]: more stable at acidic (lysosomal) pH than at neutral pH
